Here are results for 19 molecules from US20250339569A1 (3B PHARMACEUTICALS, published 2025).

Starred links: 1 amine or outer side, 2 acyl side, 3 side chain; linkers in the order of their positions; H or OH if unused. Positions of bridges follow the written chain, without caps; N, C: chain ends. Non-standard residues stand in square brackets, D forms with d. Primed or numbered codes have the meaning given here. No end group written: not given here. *: point of attachment. Aph(SaPr) = 4-amino-L-phenylalanine, ring amine acylated by 3-sulfamoylpropanoic acid, NS(=O)(=O)CCC(=O)Nc1ccc(C[C@H](N[*:1])C(=O)[*:2])cc1; Aph(2Thz) = 4-aminophenylalanine with 1,3-thiazole-2-carbonyl on the ring amine, O=C(Nc1ccc(C[C@H](N[*:1])C(=O)[*:2])cc1)c1nccs1; 3MeBn = 3-methylbenzylidene (m-xylene unit) bridging two Cys S atoms via thioethers, from alpha,alpha'-dibromo-m-xylene; Aph(iNic) = 4-aminophenylalanine with isonicotinoyl on the ring amine, O=C(Nc1ccc(C[C@H](N[*:1])C(=O)[*:2])cc1)c1ccncc1; Aph(Bz) = 4-aminophenylalanine with benzoyl on the ring amine, O=C(Nc1ccc(C[C@H](N[*:1])C(=O)[*:2])cc1)c1ccccc1; Ttds = 1,13-diamino-4,7,10-trioxatridecan-succinamic acid spacer, NCCCOCCOCCOCCCNC(=O)CCC(=O)*; Phe(3-NHCO(CH2)3SO2NH2) = N[C@@H](Cc1cccc(NC(=O)CCCS(N)(=O)=O)c1)C(=O)O; APAc″ = 2-(4-(amino)piperidin-1-yl)acetic acid, NC1CCN(CC(=O)*)CC1; DOTA = O=C(O)CN1CCN(CC(=O)O)CCN(CC(=O)*)CCN(CC(=O)O)CC1; Pyridine(3,5-bisCH2) = c1ncc(C[*:2])cc1C[*:1]; Acetyl(2-(piperazin-1-yl)) = O=C(CN1CCNCC1)*; PPAc = 4-carboxymethyl piperazine linker; mXylylene = c1cc(C[*:1])cc(C[*:2])c1; 3Amb = NCc1cccc(C(=O)O)c1; Dab = NCC[C@H](N)C(=O)O; Thp = NC1(C(=O)O)CCOCC1; Cmp = not defined here; Dap = NC[C@H](N)C(=O)O

First the molecules themselves.
B1: 3BP-4452: DOTA-PPAc-Gln-[Cys(3MeBn)-Glu-pro-Asp-Af3(Cpsu)-Leu-Thr-Trp-Ser-Cys]-NH2 (peptide)
peptide: {DOTA-Acetyl(2-(piperazin-1-yl))}-QCE[dP]D[Phe(3-NHCO(CH2)3SO2NH2)]LTWSC-NH2
modifications: linker 2-11 via 3MeBn
notes: Cyclic peptide with uncomplexed DOTA; also called DPI-4452
B2: 3BP-4503: DOTA-{Glu-[Cys(3MeBn)-Glu-pro-Asp-Af3(Cpsu)-Leu-Thr-Trp-Dap}-Cys]-NH2 (peptide)
peptide: {DOTA}-ECE[dP]D[Phe(3-NHCO(CH2)3SO2NH2)]LTW[Dap]C-NH2
modifications: lactam 1-10; linker 2-11 via mXylylene
notes: Bicyclic peptide with uncomplexed DOTA; also called DPI-4503
B3: 3BP-4501: DOTA-Gln-[Cys(3MeBn)-Glu-pro-Asp-Aph(SaPr)-Leu-Thr-Trp-Ser-Cys]-NH2 (peptide)
peptide: {DOTA}-QCE[dP]D[Aph(SaPr)]LTWSC-NH2
modifications: linker 2-11 via mXylylene
SMILES: CC(C)C[C@@H]1NC(=O)[C@H](Cc2ccc(NC(=O)CCS(N)(=O)=O)cc2)NC(=O)[C@H](CC(=O)O)NC(=O)[C@H]2CCCN2C(=O)[C@H](CCC(=O)O)NC(=O)[C@@H](NC(=O)[C@H](CCC(N)=O)NC(=O)CN2CCN(CC(=O)O)CCN(CC(=O)O)CCN(CC(=O)O)CC2)CSCc2cccc(c2)CSC[C@@H](C(N)=O)NC(=O)[C@H](CO)NC(=O)[C@H](Cc2c[nH]c3ccccc23)NC(=O)[C@H]([C@@H](C)O)NC1=O
notes: Cyclic peptide with uncomplexed DOTA; also called DPI-4501
B4: 3BP-4174: DOTA-APAc-Val-{Asp-[Cys(3MeBn)-Glu-pro-Asp-Trp-Leu-Thr-Trp-Dap}-Cys]-NH2 (peptide)
peptide: {DOTA-APAc″}-VDCE[dP]DWLTW[Dap]C-NH2
modifications: lactam 2-11; linker 3-12 via mXylylene
notes: Bicyclic peptide with uncomplexed DOTA; also called DPI-4174
B5: 3BP-3583: DOTA-APAc-Val-Tyr-[Cys(3MeBn)-Glu-pro-Asp-Trp-Leu-Thr-Trp-Ser-Cys]-NH2 (peptide)
peptide: {DOTA-APAc″}-VYCE[dP]DWLTWSC-NH2
modifications: linker 3-12 via mXylylene
notes: Cyclic peptide with uncomplexed DOTA; also called DPI-3583
B6: 3BP-4338 (peptide)
peptide: DCE[dP]DWLTW[Dap]C-NH2
modifications: lactam 1-10; linker 2-11 via mXylylene; not fully specified (N-terminus); also: indium complexed by DOTA
B7: 3BP-4260 (peptide)
peptide: {DOTA-3Amb}-DCE[dP]DWLTW[Dap]C-NH2
modifications: lactam 10-1; linker 2-11 via mXylylene
SMILES: CC(C)C[C@@H]1NC(=O)[C@H](Cc2c[nH]c3ccccc23)NC(=O)[C@H](CC(=O)O)NC(=O)[C@H]2CCCN2C(=O)[C@H](CCC(=O)O)NC(=O)[C@@H]2CSCc3cccc(c3)CSC[C@@H](C(N)=O)NC(=O)[C@H](CNC(=O)C[C@H](NC(=O)c3cccc(CNC(=O)CN4CCN(CC(=O)O)CCN(CC(=O)O)CCN(CC(=O)O)CC4)c3)C(=O)N2)NC(=O)[C@H](Cc2c[nH]c3ccccc23)NC(=O)[C@H]([C@@H](C)O)NC1=O
B8: 3BP-3858 (peptide)
peptide: {DOTA-APAc″}-CE[dP]DWLTWSC-NH2
modifications: linker 1-10 via mXylylene
B9: 3BP-4255 (peptide)
peptide: {DOTA-PPAc}-DCE[dP]DWLTW[Dap]C-NH2
modifications: lactam 10-1; linker 2-11 via mXylylene
B10: 3BP-2959 (peptide)
peptide: {DOTA-Ttds}-VYCEGDWLTWQC-NH2
modifications: linker 3-12 via mXylylene
B11: 3BP-4259 (peptide)
peptide: {DOTA-Cmp}-DCE[dP]DWLTW[Dap]C-NH2
modifications: lactam 10-1; linker 2-11 via mXylylene; reading uncertain
B12: 3BP-4050 (peptide)
peptide: Ac-VYCE[dP][Dab]WLDWSC-NH2
modifications: linker 3-12 via mXylylene; lactam 6-9
SMILES: CC(=O)N[C@H](C(=O)N[C@@H](Cc1ccc(O)cc1)C(=O)N[C@H]1CSCc2cccc(c2)CSC[C@@H](C(N)=O)NC(=O)[C@H](CO)NC(=O)[C@H](Cc2c[nH]c3ccccc23)NC(=O)[C@@H]2CC(=O)NCC[C@H](NC(=O)[C@H]3CCCN3C(=O)[C@H](CCC(=O)O)NC1=O)C(=O)N[C@@H](Cc1c[nH]c3ccccc13)C(=O)N[C@@H](CC(C)C)C(=O)N2)C(C)C
B13: 3BP-4180 (peptide)
peptide: {DOTA-APAc″}-VYCE[dP]D[Aph(2Thz)]LTWSC-NH2
modifications: linker 3-12 via mXylylene
B14: 3BP-3899 (peptide)
peptide: Ac-VYCE[dP]DWLKWSC-NH2
modifications: linker 3-12 via mXylylene; lactam 4-9
SMILES: CC(=O)N[C@H](C(=O)N[C@@H](Cc1ccc(O)cc1)C(=O)N[C@H]1CSCc2cccc(c2)CSC[C@@H](C(N)=O)NC(=O)[C@H](CO)NC(=O)[C@H](Cc2c[nH]c3ccccc23)NC(=O)[C@@H]2CCCCNC(=O)CC[C@H](NC1=O)C(=O)N1CCC[C@@H]1C(=O)N[C@@H](CC(=O)O)C(=O)N[C@@H](Cc1c[nH]c3ccccc13)C(=O)N[C@@H](CC(C)C)C(=O)N2)C(C)C
B15: 3BP-4043 (peptide)
peptide: Ac-VYCE[dP]KWL[dD]WSC-NH2
modifications: linker 3-12 via mXylylene; lactam 6-9
SMILES: CC(=O)N[C@H](C(=O)N[C@@H](Cc1ccc(O)cc1)C(=O)N[C@H]1CSCc2cccc(c2)CSC[C@@H](C(N)=O)NC(=O)[C@H](CO)NC(=O)[C@H](Cc2c[nH]c3ccccc23)NC(=O)[C@H]2CC(=O)NCCCC[C@H](NC(=O)[C@H]3CCCN3C(=O)[C@H](CCC(=O)O)NC1=O)C(=O)N[C@@H](Cc1c[nH]c3ccccc13)C(=O)N[C@@H](CC(C)C)C(=O)N2)C(C)C
B16: 3BP-3962 (peptide)
peptide: Ac-VYCE[dP]KW[Thp]EWSC-NH2
modifications: linker 3-12 via mXylylene; lactam 6-9
SMILES: CC(=O)N[C@H](C(=O)N[C@@H](Cc1ccc(O)cc1)C(=O)N[C@H]1CSCc2cccc(c2)CSC[C@@H](C(N)=O)NC(=O)[C@H](CO)NC(=O)[C@H](Cc2c[nH]c3ccccc23)NC(=O)[C@@H]2CCC(=O)NCCCC[C@H](NC(=O)[C@H]3CCCN3C(=O)[C@H](CCC(=O)O)NC1=O)C(=O)N[C@@H](Cc1c[nH]c3ccccc13)C(=O)NC1(CCOCC1)C(=O)N2)C(C)C
B17: 3BP-4141 (peptide)
peptide: {DOTA-APAc″}-VYCE[dP]DWLTWSC-NH2
modifications: linker 3-12 via Pyridine(3,5-bisCH2)
B18: 3BP-4171 (peptide)
peptide: {DOTA-APAc″}-VYCE[dP]D[Aph(Bz)]LTWSC-NH2
modifications: linker 3-12 via mXylylene
B19: 3BP-4183 (peptide)
peptide: {DOTA-APAc″}-VYCE[dP]D[Aph(iNic)]LTWSC-NH2
modifications: linker 3-12 via mXylylene

T3 sequence (Q9ULX7 16-290 limits assumed): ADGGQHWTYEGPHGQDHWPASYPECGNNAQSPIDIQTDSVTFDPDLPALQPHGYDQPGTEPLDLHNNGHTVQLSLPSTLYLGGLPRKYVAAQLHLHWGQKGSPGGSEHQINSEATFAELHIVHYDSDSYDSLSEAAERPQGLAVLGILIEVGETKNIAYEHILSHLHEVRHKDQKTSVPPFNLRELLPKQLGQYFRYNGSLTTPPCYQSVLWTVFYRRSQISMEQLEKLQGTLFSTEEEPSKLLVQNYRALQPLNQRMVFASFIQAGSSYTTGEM

One assay deals with T1, human carbonic anhydrase 4 (CAIV), biotinylated (Sino Biological Cat #10472-H08H) (human, UniProt P22748 19-283, biotinylated (sites not given)).
T1 construct: Bought protein, biotinylated and captured with the Biotin CAPture Kit; also called hCAIV-bio; carbonic anhydrase IV
T1 sequence (P22748 19-283 limits assumed): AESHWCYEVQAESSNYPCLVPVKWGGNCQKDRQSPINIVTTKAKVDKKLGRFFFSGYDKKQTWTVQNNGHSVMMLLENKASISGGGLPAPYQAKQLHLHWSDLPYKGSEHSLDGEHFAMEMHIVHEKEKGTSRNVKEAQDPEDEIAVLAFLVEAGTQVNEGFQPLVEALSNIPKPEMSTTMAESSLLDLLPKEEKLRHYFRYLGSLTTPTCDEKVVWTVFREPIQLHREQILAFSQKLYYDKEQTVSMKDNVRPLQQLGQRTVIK
Description: SPR (Biacore T200), biotinylated CAIV captured with Biotin CAPture Kit; limit of the category in which no binding is told.
B1: the pKD was < 6.

As to B2, the pKD was < 6.

In the case of B3, the pKD was < 6.

As for B4, the pKD was < 6.

On to B5, for which the pKD is < 6.

The target in a further assay is T2, Fc-fusion protein of human carbonic anhydrase IX (human, UniProt Q16790 38-414). Description: SPR, captured hCAIX-Fc; pKD category A: >8.0. For orientation: SPR reads the build-up and loss of mass on a sensor chip optically.
Turning to B6, the pKD is > 8 pkd.

As to B7, the pKD is > 8 pkd.

On to B8, for which the pKD was > 8 pkd.

With B9, the pKD is > 8 pkd.

Consider B10, for which the pKD was > 8 pkd.

Regarding B11, the pKD is > 8 pkd.

The target in the next assay is T2, Fc-fusion protein of human carbonic …. Briefly: SPR, captured hCAIX-Fc; t1/2 category D: <=2.0 min. The protocol:
Stock solutions of test compounds were prepared by dissolving each compound in DMSO. DMSO stock solution were diluted 1:1000 in Running Buffer without DMSO. […] SPR binding analyses were performed in Single Cycle Kinetic (SCK) mode at 25° C.
For each test compound, SPR raw data in the form of resonance units (RU) were plotted as sensorgrams using the Biacore™ T200 control software. The signal from the blank sensorgram was subtracted from that of the test compound sensorgram (blank corrected). The blank corrected sensorgram was corrected for baseline drift by subtracting the sensorgram of a SCK run without the test compound (running buffer only). […] Raw data and fit results were imported as text files in IDBS. The pKD value (negative decadic logarithm of dissociation constant) was calculated in the IDBS excel template.
Consider B6, for which the “t1/2 (half-life of the complex, SPR)” value was ≤ 2 min.

With B7, the “t1/2 (half-life of the complex, SPR)” value was ≤ 2 min.

B8: the “t1/2 (half-life of the complex, SPR)” value is ≤ 2 min.

In the case of B9, the “t1/2 (half-life of the complex, SPR)” value was ≤ 2 min.

Consider B10, for which the “t1/2 (half-life of the complex, SPR)” value was ≤ 2 min.

As for B11, the “t1/2 (half-life of the complex, SPR)” value was ≤ 2 min.

Another assay addresses T3, human carbonic anhydrase 14 (CAXIV), biotinylated (Sino Biological Cat #10458-H08H) (human, UniProt Q9ULX7 16-290, biotinylated (sites not given)).
T3 construct: Bought protein, biotinylated and captured with the Biotin CAPture Kit; also called hCAXIV-bio; carbonic anhydrase XIV
Briefly: SPR (Biacore T200), biotinylated CAXIV captured with Biotin CAPture Kit; limit of the category in which no binding is told.
Take B1: the pKD is < 6.

As for B2, the pKD was < 6.

With B3, the pKD was < 6.

As for B4, the pKD is < 6.

For the molecule B5, the pKD is < 6.

The target in another assay is T4, human carbonic anhydrase 12 (CAXII), biotinylated (Sino Biological Cat #10617-H08H) (human, UniProt O43570 25-301, biotinylated (sites not given)).
T4 construct: Bought protein, biotinylated and captured with the Biotin CAPture Kit; also called hCAXII-bio; carbonic anhydrase XII
T4 sequence (O43570 25-301 limits assumed): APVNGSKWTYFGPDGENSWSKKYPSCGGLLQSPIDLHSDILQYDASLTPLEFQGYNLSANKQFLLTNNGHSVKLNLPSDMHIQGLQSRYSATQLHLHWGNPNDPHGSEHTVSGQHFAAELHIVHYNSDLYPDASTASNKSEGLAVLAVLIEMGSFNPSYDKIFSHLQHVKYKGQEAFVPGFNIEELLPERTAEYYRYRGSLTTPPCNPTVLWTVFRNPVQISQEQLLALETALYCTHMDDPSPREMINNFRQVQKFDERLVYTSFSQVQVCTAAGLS
Briefly: SPR (Biacore T200), biotinylated CAXII captured with Biotin CAPture Kit; limit of the category in which no binding is told.
Turning to B1, the pKD was < 6.

As to B2, the pKD is < 6.

Consider B3, for which the pKD was < 6.

For the molecule B4, the pKD was < 6.

On to B5, for which the pKD was < 6.

A further assay concerns the target human carbonic anhydrase 9 (CAIX) (human, UniProt Q16790 38-459). Briefly: FACS competition on HT-29 cells, competitor tracer 3BP-2776; category C = pIC50 6.1-7.0. The procedure:
CAIX-expressing human HT-29 colorectal cancer cells (DSMZ, RRID: CVCL_0320) were cultured in McCoys's 5A modified medium (Biochrom, #F1015) including 10% fetal calf serum (FCS), 2 mM L-glutamine, 100 U/ml penicillin and 100 μg/mL streptomycin. Cells were detached with Accutase (Biolegend, #423201) and washed in FACS buffer (PBS including 1% FCS). Cells were diluted in FACS buffer to a final concentration of 500.000 cells per ml. 200 μL of the cell suspension were transferred to a u-shaped non-binding 96-well plate (Greiner) and cells were washed in ice-cold FACS buffer.
When biotinylated compounds were used an additional incubation step with 1 μg/mL APC-Streptavidin (Miltenyi; #130-106-791) in 50 μL FACS buffer for 30 minutes on ice was performed.
Cells were washed twice with ice-cold FACS buffer and analyzed in an Attune NxT flow cytometer (Thermo Fisher). Median fluorescence intensities (MFI) of the APC/Cy5-channel were calculated by Attune NxT software.
In turn, B12 had a pIC50 of 6.1 to 7 pic50.

B13 showed a pIC50 of 6.1 to 7 pic50.

B14 returned a pIC50 of 6.1 to 7 pic50.

The molecule B15 returned a pIC50 of 6.1 to 7 pic50.

B16 returned a pIC50 of 6.1 to 7 pic50.

B17 showed a pIC50 of 6.1 to 7 pic50.

Turning to B18, the pIC50 was in the range of 6.1 to 7 pic50.

B19 registered a pIC50 of 6.1 to 7 pic50.
